The experiment addresses lysine-acetylated histone H4 peptide SGRGKGG-AcK-GLGK (Lys8 acetylated). As to the kind of experiment: 15N-HSQC backbone amide chemical shift change upon binding to the AcK peptide.

These results are taken from patent US20040043378A1.

“bromodomain of P/CAF (residues 719-832 of SEQ ID NO:2) (from UniProt Q92831 719-832)”: the maximum weighted chemical shift difference (Tyr809) stood at 0.16 ppm.
